# T1: preformed binary complex IL-18/IL-18Rα-ECD ( | human, UniProt Q14116 37-193; Q13478 22-329)
# T1 sequence (looked up) 1: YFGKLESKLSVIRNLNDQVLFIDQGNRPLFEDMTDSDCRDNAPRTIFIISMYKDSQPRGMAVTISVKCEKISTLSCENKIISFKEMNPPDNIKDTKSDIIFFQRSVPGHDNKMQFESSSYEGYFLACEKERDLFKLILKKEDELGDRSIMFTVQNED
# T1 sequence (looked up) 2: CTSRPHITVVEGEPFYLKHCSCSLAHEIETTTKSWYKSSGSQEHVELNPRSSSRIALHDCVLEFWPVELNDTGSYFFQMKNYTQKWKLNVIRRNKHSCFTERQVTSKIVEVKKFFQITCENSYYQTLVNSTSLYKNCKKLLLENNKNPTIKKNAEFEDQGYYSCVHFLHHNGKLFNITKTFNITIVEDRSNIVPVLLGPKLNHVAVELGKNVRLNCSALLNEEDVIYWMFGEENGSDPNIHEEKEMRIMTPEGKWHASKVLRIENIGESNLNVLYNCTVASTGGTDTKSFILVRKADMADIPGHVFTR
# B1: IL-18Rβ-ECD (extracellular domain of IL-18 receptor beta), wild type (receptor, human, UniProt O95256 20-354, looked up)
# chain: FNISGCSTKKLLWTYSTRSEEEFVLFCDLPEPQKSHFCHRNRLSPKQVPEHLPFMGSNDLSDVQWYQQPSNGDPLEDIRKSYPHIIQDKCTLHFLTPGVNNSGSYICRPKMIKSPYDVACCVKMILEVKPQTNASCEYSASHKQDLLLGSTGSISCPSLSCQSDAQSPAVTWYKNGKLLSVERSNRIVVDEVYDYHQGTYVCDYTQSDTVSSWTVRAVVQVRTIVGDTKLKPDILDPVEDTLEVELGKPLTISCKARFGFERVFNPVIKWYIKDSDLEWEVSVPEAKSIKSTLKDEIIERNIILEKVTQRDLRRKFVCFVQNSIGNTTQSVQLKE
# modifications: biotin (biotinylated IL-18Rβ-ECD, site not stated)
# Biological target: T1, preformed binary complex …
# Assay: SPR
binder,measurement,value
B1,binding result,binds
